Data as given in patent US20260232827A1 (Zymeworks, published 2026).

T1: Construct 7 (human NaPi2b del 317-326) (human, UniProt O95436 1-690)
T1 construct: also called CL_#29921
T1 sequence: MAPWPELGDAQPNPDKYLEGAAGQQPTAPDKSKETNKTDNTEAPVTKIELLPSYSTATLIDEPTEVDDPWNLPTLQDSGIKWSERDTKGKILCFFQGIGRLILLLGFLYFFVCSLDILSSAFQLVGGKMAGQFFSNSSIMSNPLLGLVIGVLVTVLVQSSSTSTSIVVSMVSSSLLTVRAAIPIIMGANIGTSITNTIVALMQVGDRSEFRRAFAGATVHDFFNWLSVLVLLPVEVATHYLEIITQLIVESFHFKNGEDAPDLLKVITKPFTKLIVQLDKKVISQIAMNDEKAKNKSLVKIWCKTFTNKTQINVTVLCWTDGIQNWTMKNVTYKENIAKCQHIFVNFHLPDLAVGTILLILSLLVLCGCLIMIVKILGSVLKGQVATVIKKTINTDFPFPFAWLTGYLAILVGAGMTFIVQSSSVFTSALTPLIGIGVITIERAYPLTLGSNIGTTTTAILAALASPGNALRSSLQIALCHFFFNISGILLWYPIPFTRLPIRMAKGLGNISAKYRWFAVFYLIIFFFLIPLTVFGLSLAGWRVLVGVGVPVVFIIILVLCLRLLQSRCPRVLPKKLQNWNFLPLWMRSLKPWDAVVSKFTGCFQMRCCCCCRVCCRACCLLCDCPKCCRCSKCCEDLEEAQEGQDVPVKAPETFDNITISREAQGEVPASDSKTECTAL

B1: MX35 (v18992), reference anti-NaPi2b antibody (antibody, human IgG1, kappa)
heavy 1: GQVQLVQSGAEVVKPGASVKMSCKASGYTFTGYNIHWVKQAPGQGLEWIGAIYPGNGDTSYKQKFRGRATLTADTSTSTVYMELSSLRSEDSAVYYCARGETARATFAYWGQGTLVTVSSASTKGPSVFPLAPSSKSTSGGTAALGCLVKDYFPEPVTVSWNSGALTSGVHTFPAVLQSSGLYSLSSVVTVPSSSLGTQTYICNVNHKPSNTKVDKKVEPKSCDKTHTCPPCPAPELLGGPSVFLFPPKPKDTLMISRTPEVTCVVVDVSHEDPEVKFNWYVDGVEVHNAKTKPREEQYNSTYRVVSVLTVLHQDWLNGKEYKCKVSNKALPAPIEKTISKAKGQPREPQVYVYPPSRDELTKNQVSLTCLVKGFYPSDIAVEWESNGQPENNYKTTPPVLDSDGSFALVSKLTVDKSRWQQGNVFSCSVMHEALHNHYTQKSLSLSPG
heavy 2: not shown
light: GDIQMTQSPSSLSASVGDRVTITCSASQDIGNFLNWYQQKPGKTVKVLIYYTSSLYSGVPSRFSGSGSGTDYTLTISSLQPEDFATYYCQQYSKLPLTFGQGTKLELKRTVAAPSVFIFPPSDEQLKSGTASVVCLLNNFYPREAKVQWKVDNALQSGNSQESVTEQDSKDSTYSLSSTLTLSKADYEKHKVYACEVTHQGLSSPVTKSFNRGEC
B2: lifastuzumab (v18993), reference anti-NaPi2b antibody (antibody, human IgG1, kappa)
heavy 1: GEVQLVESGGGLVQPGGSLRLSCAASGFSFSDFAMSWVRQAPGKGLEWVATIGRVAFHTYYPDSMKGRFTISRDNSKNTLYLQMNSLRAEDTAVYYCARHRGFDVGHFDFWGQGTLVTVSSASTKGPSVFPLAPSSKSTSGGTAALGCLVKDYFPEPVTVSWNSGALTSGVHTFPAVLQSSGLYSLSSVVTVPSSSLGTQTYICNVNHKPSNTKVDKKVEPKSCDKTHTCPPCPAPELLGGPSVFLFPPKPKDTLMISRTPEVTCVVVDVSHEDPEVKFNWYVDGVEVHNAKTKPREEQYNSTYRVVSVLTVLHQDWLNGKEYKCKVSNKALPAPIEKTISKAKGQPREPQVYVYPPSRDELTKNQVSLTCLVKGFYPSDIAVEWESNGQPENNYKTTPPVLDSDGSFALVSKLTVDKSRWQQGNVFSCSVMHEALHNHYTQKSLSLSPG
heavy 2: not shown
light: GDIQMTQSPSSLSASVGDRVTITCRSSETLVHSSGNTYLEWYQQKPGKAPKLLIYRVSNRFSGVPSRFSGSGSGTDFTLTISSLQPEDFATYYCFQGSFNPLTFGQGTKVEIKRTVAAPSVFIFPPSDEQLKSGTASVVCLLNNFYPREAKVQWKVDNALQSGNSQESVTEQDSKDSTYSLSSTLTLSKADYEKHKVYACEVTHQGLSSPVTKSFNRGEC
B3: palivizumab (v21995), anti-RSV antibody, negative control (antibody, human IgG1, kappa, V domains shown)
VH: QVTLRESGPALVKPTQTLTLTCTFSGFSLSTSGMSVGWIRQPPGKALEWLADIWWDDKKDYNPSLKSRLTISKDTSKNQVVLKVTNMDPADTATYYCARSMITNWYFDVWGAGTTVTVSS
VL: DIQMTQSPSTLSASVGDRVTITCKSQLSVGYMHWYQQKPGKAPKLLIYDTSKLASGVPSRFSGSGSGTEFTLTISSLQPDDFATYYCFQGSGYPFTFGGGTKLEIKR

molecular target: T1, Construct 7 (human NaPi2b del 317-326); experiment: flow cytometry, transfected HEK293-6e cells, antibody 20 nM

Binder	Background-Subtracted AF647 Mean Fluorescence Intensity [MFI]
B1	233
B2	35
B3	-85

molecular target: T2, Construct 3 (chimeric human NaPi2b, swap in NaPi2c in 304-321) (human); experiment: as above
T2 construct: also called CL_#29916

Binder	Background-Subtracted AF647 Mean Fluorescence Intensity [MFI]
B1	930
B2	920
B3	39

molecular target: T3, Construct 2 (chimeric human NaPi2b, swap in NaPi2c in 280-301) (human); experiment: as above
T3 construct: also called CL_#29915

Binder	Background-Subtracted AF647 Mean Fluorescence Intensity [MFI]
B1	1250
B2	1200
B3	-64

molecular target: T4, Construct 4 (chimeric human NaPi2b, swap in NaPi2c in 341-358) (human); experiment: as above
T4 construct: also called CL_#13435

Binder	Background-Subtracted AF647 Mean Fluorescence Intensity [MFI]
B1	979
B2	1050
B3	22

molecular target: T1, Construct 7 (human NaPi2b del 317-326); experiment: flow cytometry, transfected HEK293-6e cells, antibody 200 nM;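 note: cells incubated with antibody for 24 h at 4 °C, background taken as average MFI of unstained cells without primary antibody, at least 1,000 events per well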

Binder	Background-Subtracted AF647 Mean Fluorescence Intensity [MFI]
B1	298
B2	21
B3	-97

molecular target: T5, Construct 5 (chimeric human NaPi2b, swap in NaPi2a in 304-348) (human); experiment: as above
T5 construct: also called CL_#13436

Binder	Background-Subtracted AF647 Mean Fluorescence Intensity [MFI]
B1	219
B2	302
B3	40

molecular target: T3, Construct 2 (chimeric human NaPi2b, …); experiment: as above

Binder	Background-Subtracted AF647 Mean Fluorescence Intensity [MFI]
B1	1360
B2	1230
B3	-30

molecular target: T6, Construct 1 (chimeric human NaPi2b, swap in NaPi2c in 239-259) (human); experiment: as above
T6 construct: also called CL_#29914

Binder	Background-Subtracted AF647 Mean Fluorescence Intensity [MFI]
B1	1720
B2	1510
B3	12
